The subject of data set [1] is cynomolgus FolR1. As to conditions: IgG injected for 60 seconds at 500 nM. The method, then:
(§1) Binding of FolR1 binders as IgG or in the T-cell bispecific format to different recombinant folate receptors (human FolR1, 2 and 3, murine FolR1 and cynomolgus FolR1; all as Fc fusions) was assessed by surface plasmon resonance (SPR). All SPR experiments were performed on a Biacore T200 at 25° C. with HBS-EP as running buffer (0.01 M HEPES pH 7.4, 0.15 M NaCl, 3 mM EDTA, 0.005% Surfactant P20, Biacore, Freiburg/Germany).
(§2) First the anti-FolR1 IgGs were analyzed by single injections (Table 1) to characterize their crossreactivity (to human, murine and cyno FolR1) and specificity (to human FolR1, human FolR2, human FolR3). Recombinant biotinylated monomeric Fc fusions of human, cynomolgus and murine Folate Receptor 1 (FolR1-Fc) or human Folate Receptor 2 and 3 (FolR2-Fc, FolR3-Fc) were directly coupled on a SA chip using the standard coupling instruction (Biacore, Freiburg/Germany). The immobilization level was about 300-400 RU. The IgGs were injected for 60 seconds at a concentration of 500 nM.

Data set [2] addresses human FolR1 (Homo sapiens, UniProt P15328). Particulars: IgG injected for 60 seconds at 500 nM. Here is the method:
as §1, §2

For data set [3], the target named is human FolR2 (Homo sapiens, UniProt P14207). As to conditions: IgG injected for 60 seconds at 500 nM. The method, then:
as §1, §2

Data set [4] deals with human FolR3 (Homo sapiens, UniProt P41439). As to conditions: IgG injected for 60 seconds at 500 nM. The method, then:
as §1, §2

The target of data set [5] is murine FolR1 (Mus musculus, UniProt P35846). Particulars: IgG injected for 60 seconds at 500 nM. Here is the method: as §1, §2
The target of data set [6] is T1, human Folate Receptor 1 (FolR1-Fc) (Homo sapiens, UniProt P15328).
T1 construct: the extracellular domain of the antigen linked to the hinge region of Fc-knob; made in house; host or cells: HEK293 EBNA
The data set is described as follows: SPR avidity to Folate Receptor 1 (bivalent binding). As to conditions: bivalent binding (avidity), ligand huFolR1. The text has this: The immobilization level was about 300-400 RU. […] The dissociation was monitored for 600 seconds.

In data set [7] the test system is cynomolgus Folate Receptor 1 (FolR1-Fc). As to conditions: bivalent binding (avidity), ligand cyFolR1. Here is the method: as §1
The avidity of the interaction between the anti-FolR1 IgGs or T cell bispecifics and the recombinant folate receptors was determined as described below (Table 9). Recombinant biotinylated monomeric Fc fusions of human, cynomolgus and murine Folate Receptor 1 (FolR1-Fc) were directly coupled on a SA chip using the standard coupling instruction (Biacore, Freiburg/Germany). The immobilization level was about 300-400 RU. The anti-FolR1 IgGs or T cell bispecifics were passed at a concentration range from 2.1 to 500 nM with a flow of 30 μL/minutes through the flow cells over 180 seconds. The dissociation was monitored for 600 seconds. […] The binding curves resulting from the bivalent binding of the IgGs or T cell bispecifics were approximated to a 1:1 Langmuir binding and fitted with that model (which is not correct, but gives an idea of the avidity). The apparent avidity constants for the interactions were derived from the rate constants of the fitting using the Bia Evaluation software (GE Healthcare).

The subject of data set [8] is cyno Folate Receptor 1 Fc fusion. As to conditions: monovalent binding (affinity), analyte cyFolR1. Here is the method:
as §1
(§3) For affinity measurement, direct coupling of around 6000-7000 resonance units (RU) of the anti-human Fab specific antibody (Fab capture kit, GE Healthcare) was performed on a CM5 chip at pH 5.0 using the standard amine coupling kit (GE Healthcare). Anti-FolR1 IgGs or T cell bispecifics were captured at 20 nM with a flow rate of 10 μl/min for 20 or 40 sec, the reference flow cell was left without capture. Dilution series (6.17 to 500 nM or 12.35 to 3000 nM) of human or cyno Folate Receptor 1 Fc fusion were passed on all flow cells at 30 μl/min for 120 or 240 sec to record the association phase. The dissociation phase was monitored for 240 s and triggered by switching from the sample solution to HBS-EP. The chip surface was regenerated after every cycle using a double injection of 60 sec 10 mM Glycine-HCl pH 2.1 or pH 1.5. Bulk refractive index differences were corrected for by subtracting the response obtained on the reference flow cell 1. The affinity constants for the interactions were derived from the rate constants by fitting to a 1:1 Langmuir binding using the Bia Evaluation software (GE Healthcare).

Data set [9] concerns the target human Folate Receptor 1 Fc fusion (Homo sapiens, UniProt P15328). As to conditions: monovalent binding (affinity), analyte huFolR1. Here is the method: as §1, §3
For data set [10], the system named is huFolR1-Fc. The data set is described as follows: SPR epitope binning. Further: key: + means binding; − means no binding; +/− means weak binding. Type of data set: binding, human. As to conditions: label = immobilized binder; 500 nM. Here is the method: 500 nM huFolR1-Fc was then captured for 60 s, followed by 500 nM of the different binders for 30 s. The surface was regenerated with two injections of 10 mM glycine pH 2 for 30 s each.

The test system of data set [11] is erythrocytes.

Experimental findings from patent publication US10781262B2, “Combination therapy of T cell activating bispecific antigen binding molecules and PD-1 axis binding antagonists” (Hoffmann-La Roche Inc., priority 2014, dated 2020) are described below.

B1: Mov19: reference molecule, the human FolR1 binder Mov19 (IgG) (antibody, V domains shown)
VH: QVQLQQSGAELVKPGASVKISCKASGYSFTGYFMNWVKQSHGKSLEWIGRIHPYDGDTFYNQNFKDKATLTVDKSSNTAHMELLSLTSEDFAVYYCTRYDGSRAMDYWGQGTTVTVSS
VL: DIELTQSPASLAVSLGQRAIISCKASQSVSFAGTSLMHWYHQKPGQQPKLLIYRASNLEAGVPTRFSGSGSKTDFTLNIHPVEEEDAATYYCQQSREYPYTFGGGTKLEIK
For B1, in [1], the “Binding to cyFolR1” value was “+”. Besides, in [2], the “Binding to huFolR1” value is on record as “+”. Moreover, the “Binding to huFolR2” value in data set [3] is on record as “−”. Further, the “Binding to huFolR3” value in data set [4] is on record as “−”. In addition, the “Binding to muFolR1” value in data set [5] is on record as “−”. In [6], this molecule gave a ka of 861000 M⁻¹ s⁻¹ and a kd of 0.000121 s⁻¹. In [7], the ka stood at 1.29e+06 M⁻¹ s⁻¹ and the kd came to 0.000139 s⁻¹. Further, in data set [8], the ka is 297000 M⁻¹ s⁻¹ and the kd came to 0.000193 s⁻¹. In data set [9], the ka stood at 289000 M⁻¹ s⁻¹ and the kd is 0.000159 s⁻¹. In [10], the “binding of analyte in solution 9D11 TCB to huFolR1 captured on the immobilized binder” value is listed as “+/−”, the “binding of analyte in solution 16D5 TCB to huFolR1 captured on the immobilized binder” value is reported as “+”, the “binding of analyte in solution 21A5 TCB to huFolR1 captured on the immobilized binder” value was “+” and the “binding of analyte in solution 36F2 IgG to huFolR1 captured on the immobilized binder” value was “−”. In data set [10], the “binding of analyte in solution Farletuzumab to huFolR1 captured on the immobilized binder” value was “−” and the “binding of analyte in solution Mov19 IgG to huFolR1 captured on the immobilized binder” value is given as “−”. Also, the binding to erythrocytes entry in [11] was “could not observe any specific binding”.
